Experimental data reported in the nanobody polyreactivity screen of Harvey et al. (2022).

Experiment: yeast display, Sf9 membrane polyspecificity reagent, FACS + sequencing; frameworks hold sequencing errors
Summary of the method: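 Synthetic nanobody libraries on Saccharomyces cerevisiae BJ5465 were galactose-induced for 36–48 hours, stained 1 hour at 4 °C with 10% biotinylated, detergent-solubilized Sf9 membrane reagent and enriched on streptavidin microbeads. FACS then separated cells into low and high (top ~1%) gates by anti-HA (expression) and streptavidin (reagent binding) fluorescence. Genes were colony-PCR amplified, MiSeq 2 × 250 sequenced and CDR-length filtered. A clone's polyreactivity label is that of its gate of origin.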

Question: For “QVQLVESGGGLVQAGGSLRFSCAASGSIFGSYAMGWYRQAPGKERELVAAITRGGGTTYYADSVKGRFTISRDNAKNTVYLQMNSLKPEDTAVYYCAAKWYHPYGPVYYWGQGTQVTVSS”, which “polyreactivity (PSR sort gate)” value is on record?
Answer: high polyreactivity

Question: With “QVQLVESGGGLVQAGGSLRFSCAASGSIFGYYSLGWYRQAPGKERELVASITFRDGSTYYADSVKGRFTISRDNAKNTVYLQMNSLKPEDTAVYYCAARYYRRYFSDYDYWGQGTQVTVSS” as the sequence, how does the “polyreactivity (PSR sort gate)” value read?
Answer: low polyreactivity

Question: For “QVQLVESGGGLVQAGGSLRFSCAASGSIFPYAMGWSIQEPGKERELVAAITSGVRTNYADSVKGRFTISRDNAKNPVDLQMNSLKPEATEVYYCAVLPRGSNGMDYWGQGTQVTVSS”, which “polyreactivity (PSR sort gate)” value is on record?
Answer: low polyreactivity

Question: With “QVQLVESGGGLVQAGGSLRFSCAASGSIFRLYAMGWYRLAPGKDRELVATLTSGGNTYADSVKGRFTISRENAKNTVYLQMNSLKPEDTAVYYCHAGQYGYYYKGYDYWGQGTQVTVSS” as the sequence, how does the “polyreactivity (PSR sort gate)” value read?
Answer: high polyreactivity

Question: For “QVQLVESGGGLVQAGGSLRFSCAASGSIFYVYAMGWYRQAPGKERELVAAIRWSGGSTYYADSVKGRFTISRDNAKKSVYLQMNSLKPEDTAVYYCAADAIPDSVCYWEYDYWGQGTQVTVSS”, which “polyreactivity (PSR sort gate)” value is on record?
Answer: low polyreactivity

Question: Which “polyreactivity (PSR sort gate)” value does the source give for “QVQLVESGGGLVQAGGSLRFSCAASGSIYRNNAIGWYRQAPGKERELVAAITSTGTGTYYADSVKGRFTISRDNAKNTVYFQMNSLKPEDTAVYYCAVDDDFEFGYWGQGTQVTVSS” here?
Answer: low polyreactivity

Question: Which “polyreactivity (PSR sort gate)” value does the source give for “QVQLVESGGGLVQAGGSLRFSCAASGSTFGTYAMGWYRQAPGKERELVAAITSGGSTDYADSVKGRFTISRDNAKNTVYLQMNSLKPEDTAVYYCNATWELLSYYYLFWGYDYWGQGTQVTVSS” here?
Answer: low polyreactivity

Question: With “QVQLVESGGGLVQAGGSLRFSCAASGSTFTTNVMGWYRQAPGKERELVAAISWSSGSTYYADSVKGRFTISRDNAKNTVYLQMNSLKPEDTAVYYCAARLVIFYPYSRYYYWGQGTQVTVSS” as the sequence, how does the “polyreactivity (PSR sort gate)” value read?
Answer: high polyreactivity

Question: Which “polyreactivity (PSR sort gate)” value does the source give for “QVQLVESGGGLVQAGGSLRFSCAASGYTVGDYAMGSYRQAPGKERELVAVITRNGGRTYYADSVKGRFTISRDNAKNTVYLQMNSLKPEDTAVYYCNRDTSIRHYNYWGQGTQVTVSS” here?
Answer: high polyreactivity

Question: Which “polyreactivity (PSR sort gate)” value does the source give for “QVQLVESGGGLVQAGGSLRFSCAASVFTFYSYAMGSDSQSPGKESEFVAAINQTSGSTTYADSVKGRFTISRDYGKNTVYLKMISLKPEDTAVYYCNAYQYYERYDTYLFRYDYWGQGTQVTVSS” here?
Answer: low polyreactivity

Question: For “QVQLVESGGGLVQAGGSLRFSCAYSGRTFFGYAMGWYRQAPGKERELVAAITSAGGRTYYADSVKGRYTISRDNAKNTVYLQMNSLKPEYTAVYYCAATRWYYGLSAFDSWGQGTQVTVSS”, which “polyreactivity (PSR sort gate)” value is on record?
Answer: high polyreactivity

Question: Which “polyreactivity (PSR sort gate)” value does the source give for “QVQLVESGGGLVQAGGSLRFSCVASGSIFRGNAKGWYRQAPGKERELVASISKGGGSTYYADSVKGRFLISRDNAKNTVYLQMNSLKPEDTAVYYCAARGGLDGIQYDYDYWGQGTQVTVSS” here?
Answer: low polyreactivity

Question: Which “polyreactivity (PSR sort gate)” value does the source give for “QVQLVESGGGLVQAGGSLRIICAASGRTFRGYAMGWYRQAPGKERELVAAITSGGSTNYADSVKGRFTISRDNAKNTVYLQMHSLKPEDTAVYYCNRDTSKYGLWRYIYDYWGQGTQVTVSS” here?
Answer: low polyreactivity

Question: For “QVQLVESGGGLVQAGGSLRIICAASGRTFSYYAMGWYRQAPGKERELVAVITSSGGSTSYADSVKGRFTISRDNAKNTVYLQMKSLKPEDTAVYYCAADPLAVSWAYYLFGVDYWGHGTQVTVSS”, which “polyreactivity (PSR sort gate)” value is on record?
Answer: high polyreactivity

Question: For “QVQLVESGGGLVQAGGSLRIRCAASGSIFWYNAMGWYRQAPGKERELVAAISYRGGSTYYADSVKGRFTISRDNAKNTVYLQMNSLKPEDTAVYYCAAEYGDVYVWTYDYWGQGTQVTVSS”, which “polyreactivity (PSR sort gate)” value is on record?
Answer: high polyreactivity

Question: With “QVQLVESGGGLVQAGGSLRISCAASASIFPQYALGWYRQAPGKERELVAGISGSGGGTYYADSVKGRFTISRDNAKNTVSVQIHSLKPEDTAVYYCYDYWRQGTQVTVSS” as the sequence, how does the “polyreactivity (PSR sort gate)” value read?
Answer: low polyreactivity

Question: With “QVQLVESGGGLVQAGGSLRISCAASDAMGWYRQAPGKERELVASISNGVSTNYADSVKGRFTISRDNAKNTVYLQMNSLKPEDTAVYYCAADAKTVGRDDLYWYEVEFDYWGQGTQVNVSS” as the sequence, how does the “polyreactivity (PSR sort gate)” value read?
Answer: low polyreactivity

Question: For “QVQLVESGGGLVQAGGSLRISCAASGFAFSYYAMGWYRQAPGKEREFVASIDWSGGSTYYADSVKGRFTISRDNAKNTVYLQMNSLKPEDTAVYYCAAELDYFPGYDYWGQGTQVTVSS”, which “polyreactivity (PSR sort gate)” value is on record?
Answer: low polyreactivity

Question: With “QVQLVESGGGLVQAGGSLRISCAASGFIFEQYAMGWYRQAPGKERELVARISWRGGSTYYADSVKGRFTISRDNAKNTVYLQMNSLKPEDTAVYYCAADVYTRFWRVYRFDYWGQGTQVTVSS” as the sequence, how does the “polyreactivity (PSR sort gate)” value read?
Answer: low polyreactivity

Question: Which “polyreactivity (PSR sort gate)” value does the source give for “QVQLVESGGGLVQAGGSLRISCAASGFIFKVYAMGWYRQAPGKERELVAAITSSGGSTYYADSVKGRFTISRDNAKNTVYLQMNSLIPEDTAVYYCAAQFPGVYYYIYDYWGQGTQVTVSS” here?
Answer: high polyreactivity

Question: Which “polyreactivity (PSR sort gate)” value does the source give for “QVQLVESGGGLVQAGGSLRISCAASGFIFVTYAMGWYRQAPGKERELVAAITNSGGTTYYADSVKGRFTISRDNAKNTVYLQMNSLKPEDTAVYYCNKPYGAETAHREFDYWGQGTQVTVSS” here?
Answer: low polyreactivity

Question: Which “polyreactivity (PSR sort gate)” value does the source give for “QVQLVESGGGLVQAGGSLRISCAASGFTFDTNAMGWYRQAPGKERELVAAISRIGGRTYADSVKGRFTISRDNAKNTVYLQMNSLKPEDTAVYYCADDRSSAYRWRSAGYYKYDYWGQGTQVTVSS” here?
Answer: low polyreactivity

Question: With “QVQLVESGGGLVQAGGSLRISCAASGFTFKAYAMGWYRLAPGKERELVAAITKSGGRTFYADSVKGRFTISRDNAKNTVYLQMNSLKPEDTAVYYCAASYTVYYWGQGTQVTVSS” as the sequence, how does the “polyreactivity (PSR sort gate)” value read?
Answer: high polyreactivity

Question: Which “polyreactivity (PSR sort gate)” value does the source give for “QVQLVESGGGLVQAGGSLRISCAASGFTFNANAMGWYRQAPGNERELVAAISLSGGRTYYADSVKGRFTISRDNAKNTVYLQMNSLKPEDTAVYYCAASPDGSFRRFSRVVSGDYWGQGTQVTVSS” here?
Answer: high polyreactivity

Question: Which “polyreactivity (PSR sort gate)” value does the source give for “QVQLVESGGGLVQAGGSLRISCAASGFTFNKYAMGWYRQAPGKERELVAALTVSGSRTYYADSVKGRFTISRDNAKNTVYLQMNSLKPEDTAVYYCAARKWYYYLRPWTSVGGYYWGQGTQVTVSS” here?
Answer: high polyreactivity

Question: With “QVQLVESGGGLVQAGGSLRISCAASGFTFVSNDMGWYRQAPGKERELVAAISQGGGSTYYADSVKGRFTISRDNAKNTVYLQMNSLKPEDTAVYYCAADIWARYYFWGFEHDYWGQGTQVTVSS” as the sequence, how does the “polyreactivity (PSR sort gate)” value read?
Answer: low polyreactivity

Question: For “QVQLVESGGGLVQAGGSLRISCAASGFTSTYYAMGWYRPAPGTERELVAAITSSGTRTYYADSVKGRFTISRDIAKKTGYLQMNSLKPEDTAVYYCNASHRKGMYYWGLGTQVTVSS”, which “polyreactivity (PSR sort gate)” value is on record?
Answer: high polyreactivity

Question: For “QVQLVESGGGLVQAGGSLRISCAASGFTYRKNAMGWDRQAPGKERELVAAITQSSGRTYYADTVKGRFTISRDNAKNTVYLQMNSLKPEDTAVYYCAARGVWPEYDYWGQGTQVNVSS”, which “polyreactivity (PSR sort gate)” value is on record?
Answer: low polyreactivity

Question: With “QVQLVESGGGLVQAGGSLRISCAASGGTFLYYAMGWYRQAPGKERELVAAISRGGSTHYADSVKGRFTISRDNAKNTVYLQMNSLKPEDTAVYYCAVDGGEFSSYGYWGQGTQVTVSS” as the sequence, how does the “polyreactivity (PSR sort gate)” value read?
Answer: low polyreactivity

Question: For “QVQLVESGGGLVQAGGSLRISCAASGIIFPQYTMGWYRPAPGKERELVAVITSGGSTYYADSVKGRFTISRDNAKNTVYLQMNSLNPEDTAVYYCAAETETYWWTFITREYDYWGQGTQVTVSS”, which “polyreactivity (PSR sort gate)” value is on record?
Answer: high polyreactivity

Question: Which “polyreactivity (PSR sort gate)” value does the source give for “QVQLVESGGGLVQAGGSLRISCAASGIIFYTYVMGWYRQAPGKEREFVAGISTSGGRTDYADSVKGRFTISRDNAKNTVYLQMNSLKPEDTAVYYCNADYWQWYSYWYDYWGQGTQVTVSS” here?
Answer: high polyreactivity

Question: Which “polyreactivity (PSR sort gate)” value does the source give for “QVQLVESGGGLVQAGGSLRISCAASGINFSVNAMGWYRQAPGKERELVAAITYSGGSTYYADSVKGRFTISRDNAKNTVYLQMNSLKPEDTAVYYCAAETYSSGEWYDYWGQGTQVTVSS” here?
Answer: high polyreactivity

Question: With “QVQLVESGGGLVQAGGSLRISCAASGITFVYYDMAWYRQAPGKDSELVAAISGGGSTNYADSVKGRFTISRDNAKNTVYLQRKSLKPEDTAVYYCNAELYYGDEGDSWGQGTLVTVSS” as the sequence, how does the “polyreactivity (PSR sort gate)” value read?
Answer: low polyreactivity

Question: For “QVQLVESGGGLVQAGGSLRISCAASGITFYRYAMGWYRQAPGKEREFVAAINYGGSSTRYADSVKGRFTISRDNAKITVYLQMNSLKPEDTAVYYCAKVELARVEYDYWGQGTQVTVSS”, which “polyreactivity (PSR sort gate)” value is on record?
Answer: low polyreactivity

Question: Which “polyreactivity (PSR sort gate)” value does the source give for “QVQLVESGGGLVQAGGSLRISCAASGLTFFRNAIGWYRQATGKERELVATITSTSSTNYADSVKVRFTISRDNSKNTVYLQMNSLKPEDTAVYYCAARTVGRKAGFDYWGQGTQVTVSS” here?
Answer: high polyreactivity

Question: With “QVQLVESGGGLVQAGGSLRISCAASGLTFQYNAMGWYRQAPGKERELVAAISSSGGSTYYADSVKGRFTISRDNAKNTVYLQMNSLKPEDTAVYYCNAYSQSWNFYGDGDYWVQGTQVTVSS” as the sequence, how does the “polyreactivity (PSR sort gate)” value read?
Answer: low polyreactivity

Question: For “QVQLVESGGGLVQAGGSLRISCAASGNTVNDYTMGWYRQEPGKERELVAAIRSGGRTYYADSVKGRFTISRDNAKNTVYLQMNSLKPEDTAVYYCAALAVTYRYDYWGQGTQVTVSS”, which “polyreactivity (PSR sort gate)” value is on record?
Answer: high polyreactivity

Question: Which “polyreactivity (PSR sort gate)” value does the source give for “QVQLVESGGGLVQAGGSLRISCAASGRIFARNAMGSYRQAPGKERELVATIRVGGGSTYYADSVTGRFTISRDNAKNTVYLQMNSLKPEDTSVYYCAVRQLYSYPGDRRGYYWGQGTQVTVSS” here?
Answer: low polyreactivity

Question: With “QVQLVESGGGLVQAGGSLRISCAASGRIFRVNGMGWSRQEPGKESELVAAIRRSGGSTYYADSVKGRFTISRDYAKKSVYLQMNSLKPEDTAVYFCAAAVRQSSYTRYDSWGQGTQVTVSS” as the sequence, how does the “polyreactivity (PSR sort gate)” value read?
Answer: high polyreactivity

Question: With “QVQLVESGGGLVQAGGSLRISCAASGRIFSGYAMGWYRQAPGKERELVAAITSGGSTNYADSVKGRFTISRDNAKNTVYLQMNSLKPEDTAVYYCAADSREVSTTAYYYWGQGTQVTVSS” as the sequence, how does the “polyreactivity (PSR sort gate)” value read?
Answer: low polyreactivity

Question: Which “polyreactivity (PSR sort gate)” value does the source give for “QVQLVESGGGLVQAGGSLRISCAASGRILARNAMGWYRQAPGKERDLVATITWTDGSTYYADSVKGRFTISRDNAKNTVYLQMNSLKPEDTAVYYCDADLPGYWLPTVPKNYGDYWGQGTQVTVSS” here?
Answer: low polyreactivity

Question: With “QVQLVESGGGLVQAGGSLRISCAASGRTFARYAMGWYRQAPGKERELVAAISRSGSTYYADSVKGRFTISRDNAKNTVYLQMNSLKPEDTAVYFCAKDTRFAGSYKYYYWGQGTQVTVSS” as the sequence, how does the “polyreactivity (PSR sort gate)” value read?
Answer: high polyreactivity

Question: Which “polyreactivity (PSR sort gate)” value does the source give for “QVQLVESGGGLVQAGGSLRISCAASGRTFGRYAMEWYRQAPGKERELVAAISWSGGSTYYADSVKGRFTISRDNAKNTVYLQMNSLKPEATAVYYCAAVTTDGVYAFDYWGQGTQVTVSS” here?
Answer: low polyreactivity
